Measurements: the nanobody polyreactivity screen of Harvey et al. (2022)

Experiment: yeast display, Sf9 membrane polyspecificity reagent, FACS + sequencing; frameworks hold sequencing errors
Procedure, shortened: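 Polyreactivity labels are assigned by the sorting gate from which each nanobody was recovered. The gates were low and high (top ~1%), set on anti-HA fluorescence for expression and streptavidin fluorescence for reagent binding. Before sorting, galactose-induced (36–48 hours) yeast display cells were stained for 1 hour at 4 °C with 10% biotinylated, detergent-solubilized Sf9 membrane reagent.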

Sequence	polyreactivity (PSR sort gate)
QVQLVESGGGLVQAGRTLRLSCAASGSNFSVYVMGWYRQAPGKEWELVAAISWSDSDTYYADSVKGRFTISRDNATNNVYLLMNSLNPEDTAVYYCAAETFDYHDYIANGSGEYDYWGQGNQVTVSS	high polyreactivity
QVQLVESGGGLVQAGVSLLLSCAASGRTFYANAMGWYSQAPGKEREFVAAISYGTGGTYYADSVKGRFTISRDNAKNTVYLQMNTLKPEDTAVYYCAASLYWGIYGWMGYWGQGTQVTVSS	high polyreactivity
QVQLVESGGGLVQAGVSLRISCAPSGRTFIIYAMGRYRQAPGKERELVADISSGGSTYYADSVKGRFKISRDNAKNTVYLHMNSLKPEDTAVYYCAAQSWYYPIGYDYWGLGTQVTVSS	low polyreactivity
QVQLVESGGGLVQAGVSLRLICAATGSIFWRKTKGWYRQAPGKEREFVAAISTSGSTYYADSVKGRFTISRDNAKNTVYLKMNSLKPEDTAVYYCAADASRGYQREGGYWGQGTQVTVSS	high polyreactivity
QVQLVESGGGLVQAGVSLRLSCAASGFISDWYAMGWYRQAPGNERELVATLDWIGGSTYADSVKGRFTISRDNAKNTVYFQMNSLKPEDTAVYYCAADSFFIAWYGAHYAYDDWGQGTQVTVSS	low polyreactivity
QVQLVESGGGLVQAGVSLRLSCAASGGTFPKYTMGWYRQAPGKERELVAAITSRGTRTYYADSVKARFTISRDNAKNTVYLQMNSLKTEDTAVYYCAAYFDRHRYDYWGQGTQVTVSS	high polyreactivity
QVQLVESGGGLVQAGVSLRLSCAASGITFVNNDMGWYRQAPGKERELVAAISSSGGSTYYADSVKGRFTISRDNAKNTDYLQMNSLKPEDTAVYYCAAPWYNAGRFRYYYWGQGTQVTVSS	high polyreactivity
QVQLVESGGGLVQAGVSLRLSCAASGITIKGNAKGWYRQAPGKERELVAAISRRGGNTYYADSVKGRFTISRDNAKNTVYLQMNSLKPEDTAVYYCAAEYNQSFDYWGQGTQVTVSS	low polyreactivity
QVQLVESGGGLVQAGVSLRLSCAASGNAMGWYRQAPGKERELVAAITYGGTTTYYADSVKGRFTISRDNAKNTVYLQMNSLKPEDTAVYYCAADFVFVATPLRYDYWGQGTQVTVSS	low polyreactivity
QVQLVESGGGLVQAGVSLRLSCAASGNIFRAYAMGWYRQAPGKERELVAAIDTTGGRTYYADSVKGRFTISRDNAKITVYLLMKSLKPEDTAVYYCAVRAPAYPYYRGFDYWGQGSQVTVSS	low polyreactivity
QVQLVESGGGLVQAGVSLRLSCAASGRIFPGYAMGSDRQAPAKERELVAGITWRTARTYYADSVKGRFTISRDNAKNTVYLQMNSLKPEDTAVYYCAAVSDYEGNYWGQGTQVTVSS	high polyreactivity
QVQLVESGGGLVQAGVSLRLSCAASGRTFGYYAMGWYRPAPGKETELVAASTLSGGSTYYADSVKGRFTISRDNAKNTVYLQMNSLKPEYTAVYYCAAKWWHFYPYDYWGQGTQVTVSS	high polyreactivity
QVQLVESGGGLVQAGVSLRLSCAASGRTFRFYAMGWYRQAPGKERELVAAITGSGGSTYYADSVKGRFTISRDNAKNTVYLQMNCLKPEDTAVYYCAASRWREYHASKMDYWGQGTQVTVSS	low polyreactivity
QVQLVESGGGLVQAGVSLRLSCAASGRTFRGYAMGWYRQAPGKERELVAAISSGGSTYYADSVKWRFTISRDNSKNTVYLQMNSLKPEDTAVYYCARAVGNYRTLEFDYWGQGTHVTVSS	low polyreactivity
QVQLVESGGGLVQAGVSLRLSCAASGSIFSYNAMGWYRQAPGKERELVAAISRCSGSTYYADSVKGRFTISRDIAKNTVYLQMNSLKPEDTAVYYCAGRPKTIPSYYLGYHVRFDYWGQGTQVTVSS	low polyreactivity
QVQLVESGGGLVQAGVSLRLSCAASGSTFVSNAMGWYRQAPGKERELVAAISWSGVRTYYADSVKGRITISRDNAKNTVYLQMNSLKPEDTAVYYCSKRIYGSRSSRFNYWGQGTQLTVSS	high polyreactivity

Sequence	polyreactivity (PSR sort gate)
QVQLVESGGGLVQAGVSLRLSCAASGSTFYWYAMGWYRQAPGKERELVAAITYSSGRTYYADSEKGRFTISRDNAKNTVYLQMNSLKPEDTAVYYCGWSALNGYDYWGQGTQVTVSS	high polyreactivity
QVQLVESGGGLVQAGVSLRLSCAASGTIFYTYTMGWYRQAPRKERELVATIRSTGSTDYADSVKGRFTISRDNAMNTVYLQMNSLKREDTAVYYCNADRFGDYDYWGQGTQVTVSS	low polyreactivity
QVQLVESGGGLVQAGVSLRLSCAAYGFTFTGYAMGWYRQAPGKEMEFVAAITTGGGSTYYADSVKGRFTISRDNAKNTVYFQMNSLKPEDTAVYYCAKSRQYIGGFDYWGQGTQVTVSS	high polyreactivity
QVQLVESGGGLVQAGVSLRLSCASTGLTFRYYAMGWYRQAPGKERELVAAISSGTGTYYADSVKGRFTISRDNAKNTVYLQMNSLKPEDTAVYYCAAVFFRARVIRGYNYWGQGTQVTVSS	high polyreactivity
QVQLVESGGGLVQAGVSLRLSCVASGLTQPYAMGWYRQAPGKESELVAGISWRGASTYYADSVKGRFTISRDNAKNTVYLQMNSLKPEDTAVSYCAARSTIQRRGYYGYRVGRSEYGYWGQGTQVTVSS	low polyreactivity
QVQLVESGGGLVQARGILRLSCAASGSTFYTYTAMGWYRQAPGKERELVAAITWRGGSTYYADSVKGRFTIARDNAKNTVYLQMNSLKPQDSAVSSCAATLNRYGYDYWGQGTQVTVSS	high polyreactivity
QVQLVESGGGLVQARGSLRLICAASGRTFEHNSMGWYRQAPGKERELVARITSGGRTYYADSVKGRFTISRDNAKNTVYLQMNSLKPEDTAVYYCATVGRGYDERHNYWGQGTQVTVSS	high polyreactivity
QVQLVESGGGLVQARGSLRLICAASGSTFWYYAKGWYRQAPGKERELVAAITSGDSTYYADSVKGRFTISRDNAKNTVYLQMNSLKPEDTAVYYCAADLPWEDGYYYYSGYTEYDYWGQGTQVTVSS	low polyreactivity
QVQLVESGGGLVQARGSLRLSCAASGFIFPSYAMGWYRQAPGKERELDAAITWNGGSTYYADSVKGRFTISRDNAKNTVYLQMNSLKPEDTAVYYCNKYYYYRDYGYWVQGTQVTVSS	high polyreactivity
QVQLVESGGGLVQARGSLRLSCAASGGIFYRNAMGWYRQAPGKERELVAAITQSGGRTYYADSVKGRFTISRDNAKNTVYLQMNSLKPEDTADYYCAKSRYTPTGSLQLNYWGQGTQVTVSS	high polyreactivity
QVQLVESGGGLVQARGSLRLSCAASGITFRYYAMGWYRQAPGKERELVASISWSGGSTYYADSVKGRFTISRDNAKNTVYLQMNSLKPEDTAVYYCAADILTFWYRYYYWGQGTQVTVSS	high polyreactivity
QVQLVESGGGLVQARGSLRLSCAASGLTFITNTMGWYRQAPGKERELVAVISYSGTSTYYADSVKGRFTISRDYAKNTVYLQMNSLKPEDTAVYYWDASYLGSYRYSYYYWGQGTQVTVSS	high polyreactivity
QVQLVESGGGLVQARGSLRLSCAASGLTFRWYSMGWYRQAPGKERELVAAISSGGRTYYADSVKGRFTISRDNAKNTVYLQMNSLKPEDTAVYYCSKRTLDYGFGSYGREYWGEGTQVTVSS	high polyreactivity
QVQLVESGGGLVQARGSLRLSCAASGRIFPVNTMGWYRQAPGKERELVAAITSGGGTYYADSVKGRFTISRDNAKNTVYFQMNSLKPEDTAVYYWTAPEGRKPYDSWGQGTQVTVSS	low polyreactivity
QVQLVESGGGLVQARGSLRLSCAASGRIFSKYAMGWYRQAPGKERELVAAISSSGVSTYYADSVKGRFTISRDNAKNTVYLQMNSLKPEDTAVYYCYKRTSPKRFDYWGQGTQVTVSS	high polyreactivity
QVQLVESGGGLVQARGSLRLSCAASGRIFTTYAMGWYRQAPGKESELVAAISQTGGSTYYADSVKGRFTISRDNAKNTVYLKMNSLKPEDTAVYYCNAGPAGYYDDDYWGQGTQVTVSS	low polyreactivity
